The target in data set [1] is murine ALK (purified mouse ALK antigen) (Mus musculus, UniProt P97793). As to the kind of experiment: Mouse ALK cross-reactivity, solid-state ELISA. Type of data set: binding. Details: key: − none; + weak; ++ moderate; +++ strong. Conditions: cross-reactivity with murine ALK. The method, then: Purified mAbs were evaluated for their ability to bind murine ALK by solid-state ELISA, or flow cytometry on Neuro-2a cells that express low levels of endogenous murine ALK. […]
Background: ELISA stands for enzyme-linked immunosorbent assay.

The test system of data set [2] is ALK (total protein levels in NB1 cells). Put plainly: ALK turnover (total protein levels) by Western blot, 24 hour treatment of NB1 cells. The format is cell-based, human. The arrangement: key: − none; + weak; ++ moderate; +++ strong. From the text:
FIG. 5 depicts a Western blot of a panel of ALK antibodies.
See also Table 18, below.
(A western blot detects proteins with antibodies after separation by electrophoresis.)

The test system of another data set is NB1 cells. As to the kind of experiment: Crizotinib titration and co-titration with ALK antibodies, killing of NB1 cells. The format is cell-based, human.
Data set [3] has as its system ALK (basal phosphorylation in NB1 cells). As to the kind of experiment: Western blot of ALK phosphorylation in NB1 cells. The format is cell-based, human. Conditions: for ALK phosphorylation: effect in words. The protocol: Lysed cells were subjected to SDS-PAGE, transferred to nitrocellulose and immunoblotted with antibodies against total, and phospho-specific ALK, AKT, and MAPK. FIG. 4B depicts an ELISA of NB1 cells grown in media with reduced serum and treated with 30-100 nM of each antibody for 1-2 hours. Cell lysates were incubated on ELISA plates with an anti-ALK antibody, followed by incubation with a pan phosphotyrosine antibody coupled to HRP.
Cell lysates were subjected to SDS-PAGE and transferred to nitrocellulose. Immunoblotting was performed with antibodies against total, and phospho-specific ALK, AKT, and MAPK (purchased from Cell Signaling and utilized per manufacturer's instructions). HRP (horse radish peroxidase)-conjugated secondary antibodies (Thermo Scientific, Waltham, Mass.) were used along with Supersignal West Pico Chemiluminescent Substrate (Thermo Scientific, Waltham, Mass.) to image blots.
Anti-ALK monoclonal antibodies generated in Example 1 were evaluated via Western blotting for their ability to activate or inhibit basal levels of ALK phosphorylation in NB1 cells (FIG. 4A). A subset of ALK antibodies stimulated ALK tyrosine phosphorylation and a different subset of antibodies inhibited basal levels of ALK phosphorylation. See also Table 18, below. […] That is, ALK antibodies that stimulated ALK tyrosine phosphorylation increased MAPK and AKT phosphorylation, whereas ALK antibodies that inhibited ALK tyrosine phosphorylation decreased basal levels of MAPK and AKT phosphorylation (FIG. 4A). Similar results were obtained in ELISA-based ALK phosphorylation assays from lysates of NB1 cells treated with ALK antibodies (FIG. 4B).

The target in data set [4] is C-terminal region of human ALK ECD (T637-S1038) (Homo sapiens, UniProt Q9UM73). Put plainly: Competitive binding assay (epitope binning) by flow cytometry. Conditions: antibodies to the C-terminal region. The method, then: Antibodies that bind to the C-terminal region of human ALK ECD (T637-S1038) were further characterized using a competitive binding assay. A pairwise matrix approach was used whereby each antibody was fluorescently labeled and tested for its ability to bind to ALK-expressing cells pre-incubated with an unlabeled antibody. The ability of both antibodies to bind the C-terminal domain simultaneously was tested via flow cytometry. If both antibodies bound simultaneously, they were put into different bins and considered to belong to a separate epitope class.
Sequence of C-terminal region of human ALK ECD (T637-S1038) (Q9UM73 19-1620): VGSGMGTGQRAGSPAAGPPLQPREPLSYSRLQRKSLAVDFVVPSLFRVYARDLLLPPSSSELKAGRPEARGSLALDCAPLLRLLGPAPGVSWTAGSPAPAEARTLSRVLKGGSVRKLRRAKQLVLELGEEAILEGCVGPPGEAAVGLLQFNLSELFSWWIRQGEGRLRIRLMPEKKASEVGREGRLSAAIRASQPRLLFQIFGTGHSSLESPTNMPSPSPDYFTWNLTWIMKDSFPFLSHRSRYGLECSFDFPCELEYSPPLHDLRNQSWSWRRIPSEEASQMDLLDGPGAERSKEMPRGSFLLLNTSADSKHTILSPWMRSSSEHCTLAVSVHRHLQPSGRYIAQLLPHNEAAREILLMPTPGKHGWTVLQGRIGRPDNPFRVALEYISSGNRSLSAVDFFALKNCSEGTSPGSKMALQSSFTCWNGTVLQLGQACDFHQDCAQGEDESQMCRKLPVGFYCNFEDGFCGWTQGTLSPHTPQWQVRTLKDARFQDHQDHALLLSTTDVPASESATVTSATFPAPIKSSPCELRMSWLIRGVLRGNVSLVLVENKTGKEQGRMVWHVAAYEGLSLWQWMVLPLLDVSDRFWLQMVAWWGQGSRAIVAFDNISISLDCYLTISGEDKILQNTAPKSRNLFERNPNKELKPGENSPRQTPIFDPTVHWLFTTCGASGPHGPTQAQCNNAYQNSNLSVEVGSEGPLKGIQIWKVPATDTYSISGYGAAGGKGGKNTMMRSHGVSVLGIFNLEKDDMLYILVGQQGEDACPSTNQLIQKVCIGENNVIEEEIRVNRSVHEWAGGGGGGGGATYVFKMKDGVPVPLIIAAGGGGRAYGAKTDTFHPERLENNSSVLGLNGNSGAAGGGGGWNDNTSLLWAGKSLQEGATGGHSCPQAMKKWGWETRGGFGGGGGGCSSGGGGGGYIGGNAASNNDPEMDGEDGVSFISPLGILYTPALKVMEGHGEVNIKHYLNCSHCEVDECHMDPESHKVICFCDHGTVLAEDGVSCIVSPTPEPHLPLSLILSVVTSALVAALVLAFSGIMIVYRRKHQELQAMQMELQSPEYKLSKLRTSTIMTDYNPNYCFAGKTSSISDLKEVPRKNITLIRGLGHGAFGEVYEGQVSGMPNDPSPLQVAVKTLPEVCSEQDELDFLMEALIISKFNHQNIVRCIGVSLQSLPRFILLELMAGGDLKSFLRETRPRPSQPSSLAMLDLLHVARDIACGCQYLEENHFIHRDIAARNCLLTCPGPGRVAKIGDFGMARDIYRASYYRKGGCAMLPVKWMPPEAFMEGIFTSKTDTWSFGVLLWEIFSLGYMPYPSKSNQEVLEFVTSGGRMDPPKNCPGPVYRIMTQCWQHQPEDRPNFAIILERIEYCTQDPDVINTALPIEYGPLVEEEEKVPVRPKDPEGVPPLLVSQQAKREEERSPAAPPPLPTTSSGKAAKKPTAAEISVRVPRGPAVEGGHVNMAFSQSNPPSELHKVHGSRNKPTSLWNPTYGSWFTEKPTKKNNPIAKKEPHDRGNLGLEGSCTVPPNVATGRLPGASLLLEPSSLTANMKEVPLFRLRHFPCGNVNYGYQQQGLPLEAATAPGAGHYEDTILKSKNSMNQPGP
A general note: Flow cytometry measures light scatter and fluorescence of single cells or particles in a stream.

Data set [5] has as its target human ALK (hALK, purified ALK protein) (Homo sapiens, UniProt Q9UM73). Put plainly: Monovalent affinity of humanized antibodies, BLitz System, human ALK. Type of data set: binding. Conditions: for Kd: BLitz, purified ALK protein at 70 μg/mL, single binding site fit, antibody by plate position of Table 19; for potency estimated from few doses: single dose kinetics. The method, then: The humanized ALK antibodies designed in Example 1 were tested for monovalent affinity, wherein the kinetic data are fit to a single binding site equation to obtain relative affinity values.
(§1) Kinetic measurements of the monovalent affinity of the 96 humanized ALK antibody variants (Ab351-Ab446) were collected. Affinity ranking was performed using a BLitz® System (ForteBio, Menlo Park, Calif.). Humanized anti-ALK antibodies were immobilized at 0.5 mg/mL using Protein A tips. Once baseline stability was ensured, purified ALK proteins at 70 μg/mL were added. The resulting kinetic data were fit to a single binding site equation, from which the quoted monovalent KD values were derived.
(§2) Amino acid residues that differ between rat ALK and mouse ALK are boxed. KD values for both NB1 (human) cells and Neuro2a (mouse) cells were also determined.

In data set [6] the target is T1, cell surface mALK on Neuro2a cells (Mus musculus, UniProt P97793).
T1 construct: Neuro-2a cells that express low levels of endogenous murine ALK; endogenous in cells; host or cells: Neuro-2a (Neuro2a) mouse neuroblastoma cells
T1 sequence (P97793 19-1621): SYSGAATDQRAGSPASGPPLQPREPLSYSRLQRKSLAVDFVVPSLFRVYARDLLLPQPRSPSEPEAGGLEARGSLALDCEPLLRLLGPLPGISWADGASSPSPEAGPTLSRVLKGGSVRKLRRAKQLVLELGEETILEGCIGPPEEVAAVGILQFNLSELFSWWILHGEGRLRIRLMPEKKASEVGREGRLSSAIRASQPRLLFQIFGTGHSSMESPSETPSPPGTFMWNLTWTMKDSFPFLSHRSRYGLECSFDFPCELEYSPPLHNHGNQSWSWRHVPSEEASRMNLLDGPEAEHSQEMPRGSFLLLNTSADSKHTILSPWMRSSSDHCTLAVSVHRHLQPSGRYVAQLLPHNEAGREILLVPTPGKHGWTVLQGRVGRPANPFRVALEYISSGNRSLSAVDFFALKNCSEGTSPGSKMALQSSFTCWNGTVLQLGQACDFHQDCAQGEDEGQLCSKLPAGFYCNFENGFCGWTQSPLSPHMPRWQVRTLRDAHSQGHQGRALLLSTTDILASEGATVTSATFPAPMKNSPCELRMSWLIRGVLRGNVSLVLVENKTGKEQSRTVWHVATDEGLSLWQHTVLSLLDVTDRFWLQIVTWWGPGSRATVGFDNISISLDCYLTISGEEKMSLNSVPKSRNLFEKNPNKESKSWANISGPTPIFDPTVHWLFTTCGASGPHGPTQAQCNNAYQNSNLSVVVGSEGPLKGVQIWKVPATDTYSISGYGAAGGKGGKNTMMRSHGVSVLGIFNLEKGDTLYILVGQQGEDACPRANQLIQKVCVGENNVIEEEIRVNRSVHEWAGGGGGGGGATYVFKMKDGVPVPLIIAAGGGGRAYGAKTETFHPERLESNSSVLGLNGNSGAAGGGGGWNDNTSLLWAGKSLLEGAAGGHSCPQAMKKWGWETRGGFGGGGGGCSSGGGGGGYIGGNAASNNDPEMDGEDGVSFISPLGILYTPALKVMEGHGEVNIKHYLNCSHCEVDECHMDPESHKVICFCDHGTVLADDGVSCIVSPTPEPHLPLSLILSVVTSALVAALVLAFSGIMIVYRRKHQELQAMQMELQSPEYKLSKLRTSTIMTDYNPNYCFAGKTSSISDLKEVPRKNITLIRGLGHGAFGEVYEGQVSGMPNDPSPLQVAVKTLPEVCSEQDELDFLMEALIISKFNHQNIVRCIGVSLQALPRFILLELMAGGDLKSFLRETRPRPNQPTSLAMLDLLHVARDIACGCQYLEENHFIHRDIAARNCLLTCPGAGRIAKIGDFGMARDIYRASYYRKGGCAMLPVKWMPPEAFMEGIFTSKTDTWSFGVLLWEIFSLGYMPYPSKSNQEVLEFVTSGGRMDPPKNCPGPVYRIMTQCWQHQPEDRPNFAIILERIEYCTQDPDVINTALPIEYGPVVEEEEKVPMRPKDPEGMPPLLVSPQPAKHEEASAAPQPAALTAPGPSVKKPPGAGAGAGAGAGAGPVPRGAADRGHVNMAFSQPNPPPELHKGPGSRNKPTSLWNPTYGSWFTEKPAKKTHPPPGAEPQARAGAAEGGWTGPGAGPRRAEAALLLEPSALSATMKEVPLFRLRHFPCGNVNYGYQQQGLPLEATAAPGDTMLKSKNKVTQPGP
Put plainly: KD of humanized antibodies on Neuro2a (mouse) cells. Type of data set: binding. Conditions: FACS, mean. The protocol:
as §2

The test system of data set [7] is ALK on the surface of NB1 cells. Put plainly: KD determination by flow cytometry on NB1 cells. Conditions: NB1 (human) cells, FACS, mean. The format is binding. The method, then:
FIG. 3 depicts the apparent affinities (KD) of ALK antibodies for ALK expression on the surface of NB1 cells. KD was determined by flow cytometry. Titration of each antibody on NB1 cells for 2-4 hours at 4° C. was followed by incubation with a fluorescently-labeled secondary antibody. The normalized mean fluorescent intensity […] shown as “% Max binding” was plotted as a function of antibody concentration.
Flow cytometry was utilized to measure the affinity at steady state (KD) with which different ALK antibodies bind to ALK on the surface of NB1 cells (FIG. 3). Titration of each antibody on NB1 cells for 2-4 hours at 4° C. was followed by incubation with a fluorescently-labeled secondary antibody. The normalized mean fluorescent intensity (MFI) shown as “% Max binding” was plotted as a function of antibody concentration. The data were fit to a one site binding isotherm using GraphPad Prism, from which affinity values were derived.
as §2

A further data set addresses T2, mouse ALK (mALK) (Mus musculus, UniProt P97793).
T2 construct: mouse ALK (mALK)
Put plainly: Monovalent affinity of humanized antibodies, BLitz System, mouse ALK. Type of data set: binding. Conditions: single dose kinetics. The protocol: as §1, §2

Substitutions are numbered along the chain they refer to.

Sequence of human ALK (hALK, purified ALK protein) (Q9UM73 with tags, fused parts or gaps): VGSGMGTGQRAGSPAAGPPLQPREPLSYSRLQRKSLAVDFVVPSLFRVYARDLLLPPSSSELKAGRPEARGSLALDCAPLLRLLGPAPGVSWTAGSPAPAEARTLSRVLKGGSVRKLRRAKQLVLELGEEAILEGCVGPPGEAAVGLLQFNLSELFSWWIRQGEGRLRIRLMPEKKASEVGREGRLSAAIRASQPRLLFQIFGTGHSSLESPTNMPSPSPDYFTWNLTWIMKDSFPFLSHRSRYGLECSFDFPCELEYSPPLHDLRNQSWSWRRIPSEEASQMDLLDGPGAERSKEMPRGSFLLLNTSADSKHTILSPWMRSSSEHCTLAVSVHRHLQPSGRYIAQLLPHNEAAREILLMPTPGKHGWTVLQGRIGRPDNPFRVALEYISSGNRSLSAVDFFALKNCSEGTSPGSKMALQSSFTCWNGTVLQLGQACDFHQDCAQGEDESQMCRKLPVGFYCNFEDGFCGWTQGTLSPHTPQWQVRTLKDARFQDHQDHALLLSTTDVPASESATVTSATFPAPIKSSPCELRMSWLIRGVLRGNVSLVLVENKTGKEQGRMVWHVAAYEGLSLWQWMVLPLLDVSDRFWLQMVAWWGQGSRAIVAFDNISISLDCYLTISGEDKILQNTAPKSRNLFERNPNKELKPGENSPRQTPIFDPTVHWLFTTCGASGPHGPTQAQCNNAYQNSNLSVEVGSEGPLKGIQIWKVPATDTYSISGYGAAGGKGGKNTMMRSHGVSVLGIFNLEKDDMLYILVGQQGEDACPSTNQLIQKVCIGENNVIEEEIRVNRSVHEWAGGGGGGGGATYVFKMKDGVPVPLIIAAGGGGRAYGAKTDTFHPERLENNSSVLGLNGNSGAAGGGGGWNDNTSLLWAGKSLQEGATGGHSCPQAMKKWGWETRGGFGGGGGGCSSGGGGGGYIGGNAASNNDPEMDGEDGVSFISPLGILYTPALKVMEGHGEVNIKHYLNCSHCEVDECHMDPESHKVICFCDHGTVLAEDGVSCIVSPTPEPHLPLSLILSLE

B1: Ab327: anti-ALK monoclonal antibody; VL SEQ ID NO: 409, VH SEQ ID NO: 410 (antibody, V domains shown)
VH: DVKLVESGEGLVKPGGSLKLSCAASGFTFSSYAMSWVRQTPEKRLEWVTYISSGGDYIYYADTVKGRFTISRDNARNTLYLQMSSLKSEDTAMYYCTRERIWLRRFFDVWGTGTTVTVSS
VL: DIVMTQSQKFMSTSVGDRVSITCKASQNVGTAVAWYQLKPGQSPKLLIYSASNRFTGVPDRFTGSGSGTDFTLTISNMQSEDLADYFCQQYSSYPLTFGSGTKLEIKR
modifications: VH domain - Ab327; VL domain - Ab327
In the case of B1, in data set [1], the “mouse ALK binding” value is “+++”. Also, the ALK turnover result in [2] is on record as “++”. Besides, the “effect on the anti-proliferative effect of crizotinib” value with NB1 cells (co-titration of crizotinib with the antibody) is “enhanced”. Besides, in data set [3], the “effect on ALK activity (ALK inhibitory or ALK agonistic antibody)” value was “inhibitory” and the ALK phosphorylation result is “inhibitor”. Besides, the “Bin/Domain (bin)” value in data set [4] came out at 2.

B2: Ab400: humanized anti-ALK antibody; VL SEQ ID NO: 425, VH SEQ ID NO: 430 (antibody, V domains shown)
VH: EVQLVQSGPEVKKPGTSVKLSCKASGYTFTSYWMHWVRQARGQRLEWIGYIKPSSGYTKYNQKFKDRATLTADKSTSTAYMELSSLRSEDTAVYYCARDYYGSSSWFAYWGQGTLVTVSS
VL: EIVMTQSQATMSTSVGERATLSCKASQNVGTNVAWYQQKPGQSPKALIYSASYRYSGVPARFSGSGSGTDFTLTISSVEPEDFAVYYCQQYNSYPYMYTFGQGTKLEIK
modifications: VH domain - Ab352; VL domain - Ab399
In the case of B2, the figures for the Kd in [5], in [6] and in data set [7] were 81.5 nM, 7.4 nM and 1.3 nM, respectively. Besides, the potency estimated from few doses in [5] is 59 nM.

B3: Ab402: humanized anti-ALK antibody; VL SEQ ID NO: 425, VH SEQ ID NO: 432 (antibody, V domains shown)
VH: B2 VH with P9A, N61A, K65Q, D66E, A68V
VL: B2 VL
modifications: VH domain - Ab354; VL domain - Ab399
Take B3: the Kd – broadly, the equilibrium constant for the complex coming apart – amounted to 87.6 nM in data set [5], 2.8 nM in [6] and 1.5 nM in [7]. Further, the potency estimated from few doses was 71 nM in [5] and 147 nM with mouse ALK (mALK).

B4: Ab352: humanized anti-ALK antibody; VL SEQ ID NO: 421, VH SEQ ID NO: 430 (antibody, V domains shown)
VH: B2 VH
VL: EIVMTQSPAFLSVTPGEKVTITCKASQNVGTNVAWYQQKPDQAPKALIYSASYRYSGVPSRFSGSGSGTDFTLTISSLEAEDAATYYCQQYNSYPYMYTFGQGTKLEIK
modifications: VH domain - Ab352; VL domain - Ab351
B4: the Kd in data set [6] stood at 7.7 nM; in data set [7] it was 1.4 nM.

B5: Ab355: humanized anti-ALK antibody; VL SEQ ID NO: 421, VH SEQ ID NO: 433 (antibody, V domains shown)
VH: B2 VH with E1Q, P9A, K12A, T16A, R38K, R41P, R44G, R67K, S84R, E89D
VL: B4 VL
modifications: VH domain - Ab355; VL domain - Ab351
B5: the Kd in data set [6] amounted to 5.1 nM; in [7], 1.26 nM.

B6: Ab403: humanized anti-ALK antibody; VL SEQ ID NO: 425, VH SEQ ID NO: 433 (antibody, V domains shown)
VH: B2 VH with E1Q, P9A, K12A, T16A, R38K, R41P, R44G, R67K, S84R, E89D
VL: B2 VL
modifications: VH domain - Ab355; VL domain - Ab399
For B6, the Kd in data set [5] came out at 94.2 nM; in data set [6], 4.15 nM; in [7] it was 0.73 nM. Also, the results for the potency estimated from few doses (in data set [5]; with mouse ALK (mALK)) were 80 nM and 120 nM, respectively.

B7: Ab323: anti-ALK monoclonal antibody; VL SEQ ID NO: 401, VH SEQ ID NO: 402 (antibody, V domains shown)
VH: QVQLQQSGAELVKPGASVKISCKTSGYTFSNYWMNWVKQRPGKGLEWIGQIFPGDADANYNGKFKGKATLTADKSSSAAFMQLSSLTSEDSAVYFCARFSYDGAFAYWGQGTLVTVS
VL: DIVMTQSHKFMSTSVGDRVSITCKASQDVSTAVAWYQQKPGQSPKPLIYWASTRHTGVPDRFTGSGSGTDYTLTISSVQTEDLALYYCQQHYSTPRTFGGGTKLEIKR
modifications: VH domain - Ab323; VL domain - Ab323
In the case of B7, the “mouse ALK binding” value in [1] was “+++”. Moreover, the ALK turnover entry in data set [2] is “++”. Further, the “effect on NB1 cell death caused by crizotinib” value in the data set on NB1 cells (constant amount of antibody added to crizotinib titration) was “partially rescued”. Besides, in data set [3], the “effect on ALK activity (ALK inhibitory or ALK agonistic antibody)” value is recorded as “agonistic” and the ALK phosphorylation entry is “weak agonist”. Also, in data set [4], the “Bin/Domain (bin)” value is given as 1.

These data come from patent publication US11091559B2, “Anti-ALK antibodies and methods for use thereof” (Celldex Therapeutics, Inc., priority 2015, dated 2021).
